Measurements taken from article PMC8585947, “Structure of Escherichia coli cytochrome bd-II type oxidase with bound aurachin D” (Nature Communications, 2021).

Target: Escherichia coli cytochrome bd-II type oxidase (hetero-trimer of AppC, AppB and AppX) (E. coli) (UniProt P26459)
Test: cryo-EM structure; bd-II in amphipol A8-35, 5.6 mg/mL, incubated with aurachin D; 20 mM MOPS, 20 mM NaCl, pH 7.0; C2 symmetry imposed; 3.0 Å

Question: How did the stoichiometry N turn out when “Escherichia coli cytochrome bd-II type oxidase (hetero-trimer of AppC, AppB and AppX) (from UniProt P26459 1-514; P26458 1-378; P24244 1-30) (complex)” was run?
Answer: Its stoichiometry N is 2.
